Assay results published in US20100028342A1.

How the values were obtained:
[1] = target: recombinant extracellular portion of human IGF-IR (soluble IGF-IR) (human) (UniProt P08069); assay: competition: cold IGF-II against radiolabeled IGF-I on immobilized IGF-IR; cold IGF-II as competitor
[2] = target: recombinant extracellular portion of human IGF-IR (soluble IGF-IR) (human) (UniProt P08069); assay: human IGF-IR-based ELISA, column Binding (ED50)
[3] = target: recombinant extracellular portion of human IGF-IR (soluble IGF-IR) (human) (UniProt P08069); assay: human IGF-IR binding ELISA, repeated with the same sample of A12
[4] = target: recombinant extracellular portion of human IGF-IR (soluble IGF-IR) (human) (UniProt P08069); assay: ligand blocking of IGF-I binding to IGF-IR, column Blocking (EC50)
[5] = target: recombinant extracellular portion of human IGF-IR (soluble IGF-IR) (human) (UniProt P08069); assay: competition: blocking of radiolabeled IGF-I binding to immobilized IGF-IR
[6] = target: recombinant extracellular portion of human IGF-IR (soluble IGF-IR) (human) (UniProt P08069); assay: BIAcore 3000, soluble IGF-IR immobilized on the sensor chip, full IgG in solution
[7] = target: recombinant extracellular portion of human IGF-IR (soluble IGF-IR) (human) (UniProt P08069); assay: ratio of plate binding: ED50 on human IGF-IR against the highest concentration tested on IR

antibody A12 (fully human IgG1 anti-IGF-IR antibody), sequence (VH): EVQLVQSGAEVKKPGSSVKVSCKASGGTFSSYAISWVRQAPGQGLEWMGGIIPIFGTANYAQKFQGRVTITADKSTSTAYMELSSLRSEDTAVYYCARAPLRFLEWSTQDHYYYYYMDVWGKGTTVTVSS
antibody A12 (fully human IgG1 anti-IGF-IR antibody), sequence (VL): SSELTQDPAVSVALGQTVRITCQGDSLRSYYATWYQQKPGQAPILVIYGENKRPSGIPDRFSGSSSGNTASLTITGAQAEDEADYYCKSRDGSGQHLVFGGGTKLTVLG

| IC50 [1] [nM] | EC50 [2] [nM] | EC50 [3] [nM] | EC50 [4] [nM] | IC50 [5] [nM] | Kd [6] [nM] | koff [6] [s⁻¹] | kon [6] [M⁻¹ s⁻¹] | selectivity for IGF-IR in comparison to IR [7] [fold] | Substance |
| --- | --- | --- | --- | --- | --- | --- | --- | --- | --- |
| 6 |  |  |  |  |  |  |  |  | IGF-II (from UniProt P01344 25-91) (ligand) |
|  | 0.3 | 0.3 to 0.5 | 0.6 to 1 | 1 | 0.041 | 3e-05 | 720000 | > 3000 | antibody A12 (fully human IgG1 anti-IGF-IR antibody) |
